Laboratory results published in publication PMC7563123 (Biomolecules, 2020).

How the values were obtained:
Conditions in all cases: both partners purified
[1] = target: T1, amyloid beta peptide 1-42 (Aβ1–42) (human, UniProt P05067 672-713); assay: SPR; oligomeric Aβ1–42 (Preparation A, dilution of the stock), 1.1-0.055 μM, flowed over cypD or 17β-HSD10 captured by immobilised antibody; running buffer RB1 (10 mM HEPES pH 7.4, BSA 200 μg/mL, 5 mM Na+, 140 mM K+, 1 mM Mg2+); 25 °C, 20 µL/min; global fit, 1:1 Langmuir model
T1 construct: amyloid beta peptide of 42 amino acids, human, produced from amyloid precursor protein; numbers count on: the Aβ peptide; One peptide used in two states; Preparation B (NaOH) is called monomeric, though it might hold monomers and low oligomers; Preparation A (plain dilution of the stock) is called oligomeric, and the size of the oligomers is not determined; The states are told apart by the …

[2] = target: T1, amyloid beta peptide 1-42 (Aβ1–42); assay: SPR; monomeric Aβ (Aβ1–40 by Preparation C, HFIP; Aβ1–42 by Preparation B, NaOH), five concentrations, flowed over cypD or 17β-HSD10 captured by immobilised antibody; running buffer RB1 (10 mM HEPES pH 7.4, BSA 200 μg/mL, 5 mM Na+, 140 mM K+, 1 mM Mg2+); 25 °C, 20 µL/min; global fit, 1:1 Langmuir model
[3] = target: T2, amyloid beta peptide 1-40 (Aβ1–40) (human, UniProt P05067 672-711); assay: as above
T2 construct: amyloid beta peptide of 40 amino acids, human, produced from amyloid precursor protein; numbers count on: the Aβ peptide; Stock dissolved in 1% NH4OH and diluted by PBS to 100 μM; Preparation C (HFIP) is called monomeric, though it might hold monomers and low oligomers; also called monomeric Aβ_(1–40); source: synthetic peptide, bought: AnaSpec

Kd [1]: 5.3 ± 1.2 nM
koff [1]: 6.1e-05 s⁻¹
kon [1]: 11100 M⁻¹ s⁻¹
Kd [2]: 56.5 ± 5.4 nM
koff [2]: 0.000139 s⁻¹
kon [2]: 2690 M⁻¹ s⁻¹
Kd [3]: 160 ± 57.8 nM
koff [3]: 0.000174 s⁻¹
kon [3]: 1170 M⁻¹ s⁻¹
B1: cyclophilin D (cypD), human recombinant (enzyme)
chain: not shown
notes: cyclophilin D, human recombinant, NCBI Gene ID 10105; Commercial protein; It was held on the chip by an immobilised anti-cypD antibody; source: bought: Fitzgerald
